Five molecules from paper PMC8298490, “Structure and function of an Arabidopsis thaliana sulfate transporter” (Nature Communications, 2021) can be followed below.

The target in one data set is T1, AtSULTR4;1 ΔSTAS (Arabidopsis thaliana, UniProt Q9FY46).
T1 construct: gene SULTR4; STAS domain (residues 503-685) truncated, transmembrane domain only, C-terminal His6-tag cleaved by TEV, High Five insect cells, monomeric by SEC
T1 sequence (Q9FY46 1-502): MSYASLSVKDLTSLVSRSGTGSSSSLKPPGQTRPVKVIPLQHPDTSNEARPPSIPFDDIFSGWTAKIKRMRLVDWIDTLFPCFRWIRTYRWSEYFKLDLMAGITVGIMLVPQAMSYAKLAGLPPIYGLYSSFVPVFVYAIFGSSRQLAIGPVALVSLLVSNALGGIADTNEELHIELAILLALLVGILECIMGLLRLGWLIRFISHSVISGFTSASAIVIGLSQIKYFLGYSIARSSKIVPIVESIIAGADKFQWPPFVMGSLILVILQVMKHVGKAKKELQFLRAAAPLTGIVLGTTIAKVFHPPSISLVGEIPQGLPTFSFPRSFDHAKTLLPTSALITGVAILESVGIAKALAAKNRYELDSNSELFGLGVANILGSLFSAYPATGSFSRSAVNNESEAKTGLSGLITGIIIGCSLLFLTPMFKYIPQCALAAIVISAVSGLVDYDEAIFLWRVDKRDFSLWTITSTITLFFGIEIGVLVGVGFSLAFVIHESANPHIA
The data set is described as follows: […]SO4 uptake into proteoliposomes, […] min. The data set is classed as biochemical. Conditions: 13.3 µM 35SO4, pH 7.5 inside / 5.5 outside; labelled compound.

Data set [1] concerns the molecule itself. Kind of data set: cryo-EM structure; AtSULTR4;1 in GDN, 20 mM MES pH 6.0, 150 mM Na2SO4, 5 mM BME; refined with C2 symmetry; overall resolution 2.8 Å.
Data set [2] concerns the molecule itself. The data set is described as follows: SEC; purified protein on SRT-3C SEC-300 column, 20 mM HEPES, 150 mM NaCl, 5 mM BME, 0.01% LMNG; elution profile compared with wild type. (In gel filtration, larger molecules generally elute earlier.)

As for `O=S(=O)(O)O` [SO4^2−], the “35SO4 uptake into proteoliposomes, 5 min” value on AtSULTR4;1 ΔSTAS is listed as “ΔSTAS retains a lower level of transport activity”.

B1: Arabidopsis thaliana sulfate transporter SULTR4;1 (AtSULTR4;1), wild type (natural protein, UniProt Q9FY46 24-685, looked up)
chain: SSLKPPGQTRPVKVIPLQHPDTSNEARPPSIPFDDIFSGWTAKIKRMRLVDWIDTLFPCFRWIRTYRWSEYFKLDLMAGITVGIMLVPQAMSYAKLAGLPPIYGLYSSFVPVFVYAIFGSSRQLAIGPVALVSLLVSNALGGIADTNEELHIELAILLALLVGILECIMGLLRLGWLIRFISHSVISGFTSASAIVIGLSQIKYFLGYSIARSSKIVPIVESIIAGADKFQWPPFVMGSLILVILQVMKHVGKAKKELQFLRAAAPLTGIVLGTTIAKVFHPPSISLVGEIPQGLPTFSFPRSFDHAKTLLPTSALITGVAILESVGIAKALAAKNRYELDSNSELFGLGVANILGSLFSAYPATGSFSRSAVNNESEAKTGLSGLITGIIIGCSLLFLTPMFKYIPQCALAAIVISAVSGLVDYDEAIFLWRVDKRDFSLWTITSTITLFFGIEIGVLVGVGFSLAFVIHESANPHIAVLGRLPGTTVYRNIKQYPEAYTYNGIVIVRIDSPIYFANISYIKDRLREYEVAVDKYTNRGLEVDRINFVILEMSPVTHIDSSAVEALKELYQEYKTRDIQLAISNPNKDVHLTIARSGMVELVGKEWFFVRVHDAVQVCLQYVQSSNLEDKHLSFTRRYGGSNNNSSSSNALLKEPLLSVEK
notes: A. thaliana SULTR4;1, codon-optimized gene (NCBI NM_121358.3); residues 1-69 and 645-685 are called the N- and C-termini and were not resolved; the model holds residues 70-644; Homodimer in the cryo-EM structure; also called WT; source: High Five (Trichoplusia ni) insect cells, baculovirus; purified (LMNG solubilisation, Talon cobalt resin, SEC); not shown: His6, C-terminal, cleaved
For B1, the “stoichiometry N” value in data set [1] was 2.

B2: AtSULTR4;1 K353E (natural protein, Arabidopsis thaliana, UniProt Q9FY46 24-685, looked up)
chain: SSLKPPGQTRPVKVIPLQHPDTSNEARPPSIPFDDIFSGWTAKIKRMRLVDWIDTLFPCFRWIRTYRWSEYFKLDLMAGITVGIMLVPQAMSYAKLAGLPPIYGLYSSFVPVFVYAIFGSSRQLAIGPVALVSLLVSNALGGIADTNEELHIELAILLALLVGILECIMGLLRLGWLIRFISHSVISGFTSASAIVIGLSQIKYFLGYSIARSSKIVPIVESIIAGADKFQWPPFVMGSLILVILQVMKHVGKAKKELQFLRAAAPLTGIVLGTTIAKVFHPPSISLVGEIPQGLPTFSFPRSFDHAKTLLPTSALITGVAILESVGIAEALAAKNRYELDSNSELFGLGVANILGSLFSAYPATGSFSRSAVNNESEAKTGLSGLITGIIIGCSLLFLTPMFKYIPQCALAAIVISAVSGLVDYDEAIFLWRVDKRDFSLWTITSTITLFFGIEIGVLVGVGFSLAFVIHESANPHIAVLGRLPGTTVYRNIKQYPEAYTYNGIVIVRIDSPIYFANISYIKDRLREYEVAVDKYTNRGLEVDRINFVILEMSPVTHIDSSAVEALKELYQEYKTRDIQLAISNPNKDVHLTIARSGMVELVGKEWFFVRVHDAVQVCLQYVQSSNLEDKHLSFTRRYGGSNNNSSSSNALLKEPLLSVEK
notes: A. thaliana SULTR4;1 (NCBI NM_121358.3) with the charge-reversal mutation K353E on TM8 (core domain); Made by QuikChange on the wild-type construct; source: High Five insect cells, baculovirus; purified following the same protocol as wild type; not shown: His6, C-terminal, cleaved
In the case of B2, the binding result in data set [2] was “binds”.

B3: AtSULTR4;1 R550E (natural protein, Arabidopsis thaliana, UniProt Q9FY46 24-685, looked up)
chain: SSLKPPGQTRPVKVIPLQHPDTSNEARPPSIPFDDIFSGWTAKIKRMRLVDWIDTLFPCFRWIRTYRWSEYFKLDLMAGITVGIMLVPQAMSYAKLAGLPPIYGLYSSFVPVFVYAIFGSSRQLAIGPVALVSLLVSNALGGIADTNEELHIELAILLALLVGILECIMGLLRLGWLIRFISHSVISGFTSASAIVIGLSQIKYFLGYSIARSSKIVPIVESIIAGADKFQWPPFVMGSLILVILQVMKHVGKAKKELQFLRAAAPLTGIVLGTTIAKVFHPPSISLVGEIPQGLPTFSFPRSFDHAKTLLPTSALITGVAILESVGIAKALAAKNRYELDSNSELFGLGVANILGSLFSAYPATGSFSRSAVNNESEAKTGLSGLITGIIIGCSLLFLTPMFKYIPQCALAAIVISAVSGLVDYDEAIFLWRVDKRDFSLWTITSTITLFFGIEIGVLVGVGFSLAFVIHESANPHIAVLGRLPGTTVYRNIKQYPEAYTYNGIVIVRIDSPIYFANISYIKDRLEEYEVAVDKYTNRGLEVDRINFVILEMSPVTHIDSSAVEALKELYQEYKTRDIQLAISNPNKDVHLTIARSGMVELVGKEWFFVRVHDAVQVCLQYVQSSNLEDKHLSFTRRYGGSNNNSSSSNALLKEPLLSVEK
notes: A. thaliana SULTR4;1 (NCBI NM_121358.3) with the charge-reversal mutation R550E on helix alpha1 of the STAS domain; Made by QuikChange on the wild-type construct; source: High Five insect cells, baculovirus; purified following the same protocol as wild type; not shown: His6, C-terminal, cleaved
Consider B3, for which, in data set [2], the binding result is reported as “binds”.

B4: AtSULTR4;1 D547R (natural protein, Arabidopsis thaliana, UniProt Q9FY46 24-685, looked up)
chain: SSLKPPGQTRPVKVIPLQHPDTSNEARPPSIPFDDIFSGWTAKIKRMRLVDWIDTLFPCFRWIRTYRWSEYFKLDLMAGITVGIMLVPQAMSYAKLAGLPPIYGLYSSFVPVFVYAIFGSSRQLAIGPVALVSLLVSNALGGIADTNEELHIELAILLALLVGILECIMGLLRLGWLIRFISHSVISGFTSASAIVIGLSQIKYFLGYSIARSSKIVPIVESIIAGADKFQWPPFVMGSLILVILQVMKHVGKAKKELQFLRAAAPLTGIVLGTTIAKVFHPPSISLVGEIPQGLPTFSFPRSFDHAKTLLPTSALITGVAILESVGIAKALAAKNRYELDSNSELFGLGVANILGSLFSAYPATGSFSRSAVNNESEAKTGLSGLITGIIIGCSLLFLTPMFKYIPQCALAAIVISAVSGLVDYDEAIFLWRVDKRDFSLWTITSTITLFFGIEIGVLVGVGFSLAFVIHESANPHIAVLGRLPGTTVYRNIKQYPEAYTYNGIVIVRIDSPIYFANISYIKRRLREYEVAVDKYTNRGLEVDRINFVILEMSPVTHIDSSAVEALKELYQEYKTRDIQLAISNPNKDVHLTIARSGMVELVGKEWFFVRVHDAVQVCLQYVQSSNLEDKHLSFTRRYGGSNNNSSSSNALLKEPLLSVEK
notes: A. thaliana SULTR4;1 (NCBI NM_121358.3) with the charge-reversal mutation D547R on helix alpha1 of the STAS domain; Made by QuikChange on the wild-type construct; source: High Five insect cells, baculovirus; purified following the same protocol as wild type; not shown: His6, C-terminal, cleaved
With B4, the binding result in data set [2] is “binds”.

The stoichiometry N is the number of molecules, sites or subunits per partner or assembly.
